Measured values: US20250026827A1 (Alector, published 2025)
Substitutions are numbered along the chain they refer to.

T1: mouse SIRPβ1 on CHO cells (mouse)
T1 construct: Whole entry
T1 chain: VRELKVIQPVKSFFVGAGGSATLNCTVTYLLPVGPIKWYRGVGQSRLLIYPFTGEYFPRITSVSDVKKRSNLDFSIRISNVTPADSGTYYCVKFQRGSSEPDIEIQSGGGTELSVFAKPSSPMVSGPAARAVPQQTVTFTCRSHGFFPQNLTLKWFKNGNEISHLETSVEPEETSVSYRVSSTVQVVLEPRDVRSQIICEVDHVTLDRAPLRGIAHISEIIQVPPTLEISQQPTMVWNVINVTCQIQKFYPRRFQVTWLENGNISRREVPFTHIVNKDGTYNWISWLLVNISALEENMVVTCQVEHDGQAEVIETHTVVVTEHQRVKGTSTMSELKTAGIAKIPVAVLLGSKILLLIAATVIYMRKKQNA

T2: mouse SIRPα on cells (mouse, UniProt P97797 32-513)
T2 construct: whole, on cells
T2 sequence (looked up): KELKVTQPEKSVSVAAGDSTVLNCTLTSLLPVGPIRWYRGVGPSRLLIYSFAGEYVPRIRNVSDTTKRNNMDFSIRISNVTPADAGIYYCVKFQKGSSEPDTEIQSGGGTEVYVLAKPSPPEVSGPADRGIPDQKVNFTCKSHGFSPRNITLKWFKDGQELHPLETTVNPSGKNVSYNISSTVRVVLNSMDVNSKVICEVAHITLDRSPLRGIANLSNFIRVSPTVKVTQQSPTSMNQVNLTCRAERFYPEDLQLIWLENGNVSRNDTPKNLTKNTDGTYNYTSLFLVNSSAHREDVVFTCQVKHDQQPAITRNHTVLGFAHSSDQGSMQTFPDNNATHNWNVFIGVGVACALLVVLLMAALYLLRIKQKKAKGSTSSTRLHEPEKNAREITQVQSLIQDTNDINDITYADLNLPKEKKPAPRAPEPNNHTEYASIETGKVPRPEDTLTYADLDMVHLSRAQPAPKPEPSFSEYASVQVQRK

T3: mouse SIRPα D1-Fc (mouse, UniProt P97797 32-150, limits assumed)
T3 construct: domain: D1
T3 sequence (looked up): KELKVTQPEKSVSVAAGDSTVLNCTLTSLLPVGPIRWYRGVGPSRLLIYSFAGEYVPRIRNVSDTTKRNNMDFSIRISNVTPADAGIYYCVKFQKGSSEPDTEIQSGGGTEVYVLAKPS

B1: SB-16 (antibody, V domains shown)
VH: QVQLVQSGAEVKKPGSSVKVSCKASGGTFSSYAISWVRQAPGQGLEWMGSIIPIFGTANYAQKFQGRVTITADESTSTAYMELSSLRSEDTAVYYCARANYYDSSGYSGLDLWGRGTLVTVSS
VL: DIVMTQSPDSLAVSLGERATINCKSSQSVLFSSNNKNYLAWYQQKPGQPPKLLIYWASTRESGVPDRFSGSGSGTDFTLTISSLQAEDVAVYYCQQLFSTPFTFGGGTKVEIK
notes: IgG
B2: SB-27 (antibody, V domains shown)
VH: QVQLVQSGAEVKKPGSSVKVSCKASGGTFSSYAISWVRQAPGQGLEWMGGIIPIFGTANYAQKFQGRVTITADESTSTAYMELSSLRSEDTAVYYCARQDLGSSHWHFDLWGRGTLVTVSS
VL: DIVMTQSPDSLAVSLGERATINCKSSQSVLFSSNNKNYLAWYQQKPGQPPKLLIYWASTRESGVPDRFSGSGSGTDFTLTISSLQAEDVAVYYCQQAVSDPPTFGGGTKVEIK
notes: IgG
B3: SB-24 (antibody, V domains shown)
VH: QVQLQESGPGLVKPSETLSLTCAVSGYSISSGYYWAWIRQPPGKGLEWIGSIYHSGSTYYNPSLKSRVTISVDTSKNQFSLKLSSVTAADTAVYYCARDRSRGYPVYGMDVWGQGTTVTVSS
VL: EIVMTQSPATLSVSPGERATLSCRASQSVSSNLAWYQQKPGQAPRLLIYGASTRATGIPARFSGSGSGTEFTLTISSLQSEDFAVYYCQQLNIHPWTFGGGTKVEIK
notes: IgG
B4: SB-34 (antibody, V domains shown)
VH: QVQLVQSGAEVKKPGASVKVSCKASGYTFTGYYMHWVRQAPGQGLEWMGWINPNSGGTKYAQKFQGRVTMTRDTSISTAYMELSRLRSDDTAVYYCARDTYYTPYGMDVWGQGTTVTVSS
VL: B3 VL with L91D, I93T, H94F, W96Y
notes: IgG
B5: SB-18 (antibody, V domains shown)
VH: QVQLVQSGAEVKKPGSSVKVSCKASGGTFSSYAISWVRQAPGQGLEWMGGIIPIFGTANYAQKFQGRVTITADESTSTAYMELSSLRSEDTAVYYCARAKPRGDYGMDVWGQGTTVTVSS
VL: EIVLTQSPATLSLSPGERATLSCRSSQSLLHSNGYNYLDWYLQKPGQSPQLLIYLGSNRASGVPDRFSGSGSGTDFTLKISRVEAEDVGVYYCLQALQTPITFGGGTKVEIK
notes: IgG
B6: SB-50 (antibody, V domains shown)
VH: QVQLVQSGAEVKKPGSSVKVSCKASGGTFSSYAISWVRQAPGQGLEWMGGIIPIFGTANYAQKFQGRVTITADESTSTAYMELSSLRSEDTAVYYCAREGGGHASYHYYGMDVWGQGTTVTVSS
VL: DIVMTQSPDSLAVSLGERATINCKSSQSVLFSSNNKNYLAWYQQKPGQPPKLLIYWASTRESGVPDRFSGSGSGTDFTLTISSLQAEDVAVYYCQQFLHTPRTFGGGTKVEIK
notes: IgG
B7: SB-22 (antibody, V domains shown)
VH: EVQLVESGGGLVQPGGSLRLSCAASGFTVSSNYMSWVRQAPGKGLEWVSVIYSDGSTYYADSVKGRFTISRDNSKNTLYLQMNSLRAEDTAVYYCARPTRYGYDRLGMDVWGQGTTVTVSS
VL: DIQMTQSPSSVSASVGDRVTITCRASQGISSWLAWYQQKPGKAPKLLIYAASNLQSGVPSRFSGSGSGTDFTLTISSLQPEDFATYYCQQGNSYPITFGGGTKVEIK
notes: IgG
B8: SB-23 (antibody, V domains shown)
VH: QVQLVQSGAEVKKPGSSVKVSCKASGGTFSSYAISWVRQAPGQGLEWMGGIAPIFGTANYAQKFQGRVTITADESTSTAYMELSSLRSEDTAVYYCARTTYRDYYMDVWGKGTTVTVSS
VL: B7 VL with V11L, G28S, W32Y, A34N, N53S, G91A, N92Y, S93P, I96L
notes: IgG
B9: SB-25 (antibody, V domains shown)
VH: QVQLVQSGAEVKKPGSSVKVSCKASGGTFSSLAISWVRQAPGQGLEWMGGIIPIFGTANYAQKFQGRVTITADESTSTAYMELSSLRSEDTAVYYCARSGGDYSGYDYASGMDVWGQGTTVTVSS
VL: B7 VL with N53S, G91V, Y94F, I96W
notes: IgG
B10: SB-36 (antibody, V domains shown)
VH: QVQLVQSGAEVKKPGASVKVSCKASGYTFTSYYMHWVRQAPGQGLEWMGIINPSGGSTSYAQKFQGRVTMTRDTSTSTVYMELSSLRSEDTAVYYCAREGPEQLWYLDYWGQGTLVTVSS
VL: DIQMTQSPSSVSASVGDRVTITCRASQGISSWLAWYQQKPGKAPKLLIYAASSLQSGVPSRFSGSGSGTDFTLTISSLQPEDFATYYCQQAFSHRTFGGGTKVEIK
notes: IgG
B11: SB-7 (antibody, V domains shown)
VH: QVQLVQSGAEVKKPGSSVKVSCKASGGTFSSYAISWVRQAPGQGLEWMGGIIPIFGTASYAQKFQGRVTITADESTSTAYMELSSLRSEDTAVYYCARETRQDSAHYYGMDVWGQGTTVTVSS
VL: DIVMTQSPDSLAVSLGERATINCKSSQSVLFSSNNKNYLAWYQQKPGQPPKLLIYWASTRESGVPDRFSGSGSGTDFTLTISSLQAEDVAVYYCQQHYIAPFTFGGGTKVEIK
notes: IgG
B12: SB-20 (antibody, V domains shown)
VH: B11 VH with G50S, S59N, E99D, T100G, Q102E, D103Y, S104G, A105G
VL: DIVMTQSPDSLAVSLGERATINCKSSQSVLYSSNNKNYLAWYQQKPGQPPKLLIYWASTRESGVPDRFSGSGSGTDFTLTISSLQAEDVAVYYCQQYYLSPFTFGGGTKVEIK
notes: IgG

What was measured:
[1] = biological target: T1, mouse SIRPβ1 on CHO cells; assay: flow cytometry;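 as to FOB: antibodies tested at 1 µg/ml for 30 min on ice against receptor-expressing cells, detected with a PE-labelled secondary antibody, read as mean fluorescence intensity relative to background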
Protocol: (§1) Initial characterization of anti-SIRPβ1 antibodies involved determining their ability to bind cell lines expressing human or mouse SIRPβ1. Cells were harvested, plated at 10⁶/ml in a 96-well plate, washed, and incubated in 100 μl FACS buffer containing 1 μg/ml anti-SIRPβ1 antibody for 0.5 hour on ice. Cells were then washed twice and incubated in 100 μl FACS buffer containing 0.5 μg/ml PE-conjugated secondary antibody for 30 minutes on ice. Cells were washed twice in cold FACS buffer and acquired on a BD FACS Canto. Data analysis and calculation of mean fluorescence intensity (MFI) values or 00 positive cells was performed with FlowJo (TreeStar) software version 10.0.7.
(§2) As a negative control, the anti-SIRPβ1 antibodies were also screened for surface binding to CHO cells overexpressing recombinant mouse SIRPβ31. […] Given the high sequence similarity between receptors of the SIRPβ family, anti-SIRPβ1 antibodies were also screened for cross-reactivity to human and mouse SIRPα.

[2] = biological target: T4, human SIRPα on cells (human, UniProt P78324 31-504); assay: flow cytometry;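 as to FOB: antibodies tested at 1 µg/ml for 30 min on ice against receptor-expressing cells, detected with a PE-labelled secondary antibody, read as mean fluorescence intensity relative to background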
T4 construct: Whole entry
Protocol: as §1, §2

[3] = biological target: T5, human SIRPβ1 isoform 1 on cells (human, UniProt O00241 30-398); assay: flow cytometry;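 also: antibodies tested at 1 µg/ml for 30 min on ice against receptor-expressing cells, detected with a PE-labelled secondary antibody, read as mean fluorescence intensity relative to background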
T5 construct: On CHO cells (low level), on BWZ/BW5147.G.1.4 cells (reporter cells co-express human DAP12) or on primary human myeloid cells; also called huSIRPβ1; BWZ-huSIRPβ1
Protocol: as §1, §2

[4] = biological target: T2, mouse SIRPα on cells; assay: flow cytometry;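 as to FOB: antibodies tested at 1 µg/ml for 30 min on ice against receptor-expressing cells, detected with a PE-labelled secondary antibody, read as mean fluorescence intensity relative to background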
Protocol: as §1, §2

[5] = biological target: T6, human SIRPα domain 1 (D1) Fc fusion (human, UniProt P78324 32-149); assay: Octet
T6 construct: also called human SIRPα D1-Fc; Human SIRPα Fc; not shown: C-terminal human IgG1 Fc

[6] = biological target: T3, mouse SIRPα D1-Fc; assay: Octet
[7] = biological target: T1, mouse SIRPβ1 on CHO cells; assay: flow cytometry
[8] = biological target: T4, human SIRPα on cells; assay: flow cytometry; remark: listed apart in the source
[9] = biological target: T2, mouse SIRPα on cells; assay: flow cytometry; remark: listed apart in the source

T5 sequence (O00241 30-398): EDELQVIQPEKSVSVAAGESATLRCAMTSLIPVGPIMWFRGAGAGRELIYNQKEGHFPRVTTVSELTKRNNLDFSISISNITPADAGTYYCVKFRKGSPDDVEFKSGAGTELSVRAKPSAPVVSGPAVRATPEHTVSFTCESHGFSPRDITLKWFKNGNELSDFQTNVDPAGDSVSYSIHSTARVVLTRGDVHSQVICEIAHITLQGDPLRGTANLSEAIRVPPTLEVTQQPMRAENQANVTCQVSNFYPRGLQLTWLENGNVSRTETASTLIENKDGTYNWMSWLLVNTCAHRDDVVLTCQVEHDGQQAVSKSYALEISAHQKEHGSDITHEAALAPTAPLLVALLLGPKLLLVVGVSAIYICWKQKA

Binder | FOB [1] [fold over background] | FOB [2] [fold over background] | FOB [3] [fold over background] | FOB [4] [fold over background] | binding result [5] | binding result [6] | binding result [7] | binding result [8] | binding result [9]
B1 | 1.5 | 2 | 2 | 1.4 | no binding (tested: 100 nM) | no binding (tested: 100 nM) | no binding (tested: 1 ug/ml) | no binding (tested: 1 ug/ml) | no binding (tested: 1 ug/ml)
B2 | 1.3 | 2.4 | 3.9 | 1.1 | no binding (tested: 100 nM) | no binding (tested: 100 nM) | no binding (tested: 1 ug/ml) | no binding (tested: 1 ug/ml) | no binding (tested: 1 ug/ml)
B3 | 1.3 | 2.5 | 3.7 | 1.1 | no binding (tested: 100 nM) | no binding (tested: 100 nM) | no binding (tested: 1 ug/ml) | no binding (tested: 1 ug/ml) | no binding (tested: 1 ug/ml)
B4 | 1.2 | 2 | 1.8 | 1.3 | no binding (tested: 100 nM) | no binding (tested: 100 nM) | no binding (tested: 1 ug/ml) | no binding (tested: 1 ug/ml) | no binding (tested: 1 ug/ml)
B5 | 1.2 | 2.4 | 2.8 | 0.9 | no binding (tested: 100 nM) | no binding (tested: 100 nM) | no binding (tested: 1 ug/ml) | no binding (tested: 1 ug/ml) | no binding (tested: 1 ug/ml)
B6 | 1.2 | 2.5 | 2.8 | 1.7 | no binding (tested: 100 nM) | no binding (tested: 100 nM) | no binding (tested: 1 ug/ml) | no binding (tested: 1 ug/ml) | no binding (tested: 1 ug/ml)
B7 | 1.4 | 1.9 | 1.4 | 0.9 | no binding (tested: 100 nM) | no binding (tested: 100 nM) | no binding (tested: 1 ug/ml) | no binding (tested: 1 ug/ml) | no binding (tested: 1 ug/ml)
B8 | 1.5 | 1.9 | 2.4 | 1.4 | no binding (tested: 100 nM) | no binding (tested: 100 nM) | no binding (tested: 1 ug/ml) | no binding (tested: 1 ug/ml) | no binding (tested: 1 ug/ml)
B9 | 1.2 | 2.5 | 2.1 | 1.3 | no binding (tested: 100 nM) | no binding (tested: 100 nM) | no binding (tested: 1 ug/ml) | no binding (tested: 1 ug/ml) | no binding (tested: 1 ug/ml)
B10 | 1.1 | 2.1 | 1.7 | 1.2 | – | no binding (tested: 100 nM) | no binding (tested: 1 ug/ml) | – | no binding (tested: 1 ug/ml)
B11 | 1.5 | 2 | 3.7 | 1 | no binding (tested: 100 nM) | no binding (tested: 100 nM) | no binding (tested: 1 ug/ml) | no binding (tested: 1 ug/ml) | no binding (tested: 1 ug/ml)
B12 | 1.3 | 2.2 | 2.6 | 1.2 | no binding (tested: 100 nM) | no binding (tested: 100 nM) | no binding (tested: 1 ug/ml) | no binding (tested: 1 ug/ml) | no binding (tested: 1 ug/ml)
